The values that follow come from a protein production outcome set (Wang et al. 2014).
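Also: failed if final PepcDB status was selected cloned or expressed and not failed if soluble or beyond.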

The data set can be described thus: label from the status in PepcDB records.
Consider “MMRRVSLGSRLALLFAACTATVSLGAGLLFSRASEQHFVELDQQLLDSRLSLFRTQLAGVSTADELQARLPALRDELSHQADLALRISASNGATWFESRSGLPHAAQATGLATLHAPGIDYRSLSVPLTQGAMQSPRLTLYLDITHHQHFLQGMQRLIWLTVGLSALITALLGAWAARSGLRPLRQMGQVAASVSARSLTTRLPVAQMPEELAELASSMNAMLQRLDDAFQRLSAFSADIAHELRTPLSNLLTHTQVTLTRPRSLEEYREALHGNLEELQWMAQMINDMLFLAKADHGLLVPGDAPLALHDEVDALLEYYAPLAEDSDVQMLREGEAVLHGDQHMLRRALSNLLDNAMRFTPAGGQIKVTLGPGPTINVANTGLAIDPAALPRLFDRFYRVDPARREGSSEHAGLGLAITRSIVQAHGGCIRAECEGGWTRFVIEFTQDR”, for which the protein production result was “failed”.
With “MKVLGYGREKKVILEAPNYDNDCVLANILAAHYLSSFDPVRARSYALAAESRLGKATLYEKAVFEAVSYLLSENMDDDVALELHSKLLKKFPKDLLSWKRVETLCSYMGRHDLSLPLFRKILPQNEGQVYVNGMLAFCLIELGHLREAEEAARKGCEINENDSWAHHALCHVLQTECRFKEAVKFMEEHSDSWDSCSSLRFSHNWWHVAVCYLEGGSHISKVEEVYDHQMWKELEKDDAVARDVYTDALGLLLRLDTRGKLDDGFQDRLEKLADSLTDKAMWYQDWLFDITTIWALSKVEKTSLAHELLEGLKSRTSAMNPKKQKLMQKAILLAEAVYEYGKGNYEIALELLGLDFDAANYKVIGGSGLQMDVFNEIWYKLLLLNGKSSTGTLLKNTIISIYFGYIFVFSATNSAFTTPEPAAIEVLEKVTKQRDGAPFLWRLLEESYSMEGKEKAGISAGKKAKALESSYFKSA” the entry was “failed”; with “MSLNYIEDIKNYIPFNEQEERDKELFLRCLNDFHDILTRDNTIAHLTSSAFAVNKERNKFLMIHHNIYNSWAWTGGHSDNEKDQLKVAIKELKEETGVKNPTPLLDKAFALDVLTVNGHIKRGKYVSSHLHLNLTYLIECSEDETLMLKEDENSGVMWIPFNEISKYCSEPHMIPIYEKLINKLKTQSKEGHHHHHH”, “not failed”; with “MSDVTQQKKRKRSKGEVNPSKPTVDEEITDPSSNEDEQLEVSDEEDALESEEEFEGENPADKRRRLAKQYLENLKSEANDILTDNRNAEEKDLNNLKERTIDEYNNFDAGDLDKDIIASRLKEDVAEQQGRVFRYFGDKLLISEAKQSFTRVGENNLTCISCFQPVLNKYTFEESSNGDKNKGRLFAYTVSKDLQLTKYDITDFSKRPKKLKYAKGGAKYIPTSKHEYENTTEGHYDEILTVAASPDGKYVVTGGRDRKLIVWSTESLSPVKVIPTKDRRGEVLSLAFRKNSDQLYASCADFKIRTYSINQFSQLEILYGHHDIVEDISALAMERCVTVGARDRTAMLWKIPDETRLTFRGGDEPQKLLRRWMKENAKEGEDGEVKYPDESEAPLFFCEGSIDVVSMVDDFHFITGSDNGNICLWSLAKKKPIFTERIAHGILPEPSFNDISGETDEELRKRQLQGKKLLQPFWITSLYAIPYSNVFISGSWSGSLKVWKISDNLRSFELLGELSGAKGVVTKIQVVESGKHGKEKFRILASIAKEHRLGRWIANVSGARNGIYSAVIDQTGF”, “failed”.
With “MNLFRSERGALALLLGVSALILLLGLGSRELWGPETRWANIALQMLQSGDYFDPYLKGAPYYDKPLPSYWLITASAWLMGGLGHWSLRLSSVIAAWLSIWLVYLIGERLFHKGTGLIAGWMLATTFYFAFWARVATADVLTVCGVLAAVWWYWRGPEDTRLGRYTVFFLILAATSLLKGLIGFVLPGLILLPHLLSQGRWKRHLNLRLVLALSIAALFYMVPFVLSHLYGAPSYGESGLSLVFRENVVRFFNPFDHVGPIYTYLIYLPAYTLPWAPCWILGLWLAARHWRQLQPNERWLVWALGLLFLFFTASGSRRSYYVLPLVPFAQLLGAWWLNRRLQLRQAVGKPVSRGWPLGFSCAALVMLLVLGVAYPWSNSGGGVMQFSADTRAAASRIAPWNQWRMVMVEIDNKLPMYLQNQGAPFYYVAETADFPRNGSSADFMAWLDKTSGQHWDPQRTLIFVQQKHDEPLMLGYLGEDHQLVRTTPTNGERLAKKPAQGSVAFIPRIPGN” the entry was “failed”; with “MRLLPRETGDGDRPRVARSARPRAGSAVEGALSAAQRPLRHGAYPRRATSPVARVRMVFLALVATLFALPALAEPKFPPLSGRVVDEAQVLSPDVERDLSDKLAALETRTGHQLVVATVSSLQGYPIEDYGYRLGRTWGIGDKDKDDGAILLVAPNDRQVRIEVGYGLEPVLTDALSSVIIQSAILPKFRDGDLSGGIVAGADAMIEQLGLPPEEAKARVADAARPERHEARGSPIVGFLILLFIIFVFSSLFRGRRGGLGSALPWIILSALNNSGRGGGGWGGGGGGGFSGGGGSFGGGGSSGRW”, “failed”; with “MSDFGILSLLPPLVAIVLAIWTKRVVFALFSGVWIGGVMAANWNPITGTIKTFEWIIQNVTNSWNATILVFDFLIGAGVGLIYKSGGVHAVANAITKRIKTSRDASLLGWLLGVLIFFDDYTNTIIVGNTMRPITDKMRVSREMLAYIDDSTAAPVAGIAIVSTWIGYELGLIKEAFEKLHITMGEYYAWLHSVPYRFYSIFAIILVFIVAYTHRHYGAMLKAEMRARTTGKVVRDDAKPLMATESDLGLPLTEKGSVHFFIWPVLSLIIVTLLGLYYTGKAACEGPCGAMDILSNADSATSLLWGSFAMVAVALTLVLATKTMTVEETESAIIQGMKQMMMATVILVLAWSIKSATEAVGTAEYVVGLAQRANVPGGIIPLIIFLTAMFISFTTGTSWGTFGILMPIAIPLAYKLAPNDPQVLFASIGAVFAGGIFGDHCSPISDTTIMSSMFSGSDHIDHVTTQIPYAVTAASVGIVLYILFALGIKSPVILLPVGLVLLIAAWYFLSEWYGKKYGVPHGRVPIYPTEISE”, “failed”.
As to “MDMDEKDVVETEEESFAELFEKSNSETQRLRPGSKVEGKILKIGAEWVFIDIGKKGEGVMERKELQDAEGNLTVAEGDTITAWFTGSVRNEMRFTTKLGAGAAANAQLEEAHRSGIPVEGFVVKEIKGGFEVRLSGTTRAFCPFSQISLRRAENPAEFVGKHLLFKVTEYSERGRNIVLSHRQILEEEQRVKREALKEVLLEGMTVTGTVTRLADFGAFVDLGGVDGLIPVSEVGWTRVKHVRDVLSVGEQVSVVIKKIDWEAGKISLSLKDTLADPWTTVAEQFPEGSYHTGTVARLAAFGAFVTLAPGIDGLIHISKLGKGKRINHPSDVLKEGETVEVKVDGVDREARRLSLALAEVSRAAEEEEKSVASFRQQATSSSKESMGSFGDLLKAKIEEKRLEHHHHHH”, the protein production result is listed as “failed”.
With “MKWVTYRSDHGERTGVLSGDAIYAMPPDVSLLDLVGRGADGLRTAGERAVRSPAAVVALDEVTLAAPIPRPPSIRDSLCFLDHMRNCQEAMGGGRVLMDTWYRIPAFYFACPSTVLGPYDDAPTAPGSAWQDFELEIAAVIGTSGKDLTVEQAERSIIGYTIFNDWSARDLQMLEGQLRIGQAKGKDSGITLGPYLVTPDELEPYCRGGKLSLRVIALVNGTVIGSGSTAQMDWSFGEVIAYASRGVTLTPGDVFGSGTVPTCTLVEHLRPPESFPGWLHDGDVVTLQVEGLGETRQTVRTSGTPFPLALRPNPDAEPDRRGVNPAPTRVPFTRGLHEVADRVWAWTLPDGGYGFSNAGLVAGDGASLLVDTLFDLALTREMLAAMKPVTERAPITDALITHSNGDHTHGTQLLDRSVRIIAAKGTSEEIEHGPAPEMLARIQTADLGPVATRYLRDRFGHFDFSGIKLRNADLTFDRDLAIELGGRRVDLLNLGPAHTTADSVVHVADAGVLFAGDLLFIGCTPIVWAGPIANWVAACDAMIALDAPTVVPGHGPVTGPDGIRAVRGYLAHIAEQAEAAYRKGLSLPEAVETIDLGEYASWLDSERVVVNVYQRYRELDPDTPRQDLLALLVMQAEWAARHCT” the entry was “failed”; with “MKIALINENSQASKNHIIYDSLKEATDKKGYQLFNYGMRGEEGESQLTYVQNGLMAAILLNTKAVDFVVTGCGTGVGAMLALNSFPGVVCGLAVDPTDAYLYSQINGGNALSIPYAKGFGWGAELTLKLMFERLFAEEMGGGYPRERVIPEQRNARILNEVKQITHNDLMTILKIIDQDFLKDTISGKYFQEYFFENCQDDEVAAYLKEVLAK”, “not failed”.
As for “EVKEEDAFYSKKCKLFYKKDNEFKEKGIGTLHLKPTANQKTQLLVRADTNLGNILLNVLIPPNMPCTRTGKNNVLIVCVPNPPIDEKNATMPVTMLIRVKTSEDADELHKILLEKKDA”, the protein production entry is recorded as “not failed”.
With “MNDIVEFLKVFIPLFIVIDPFGSLVLFTSMTYNFNEGEKMRATKDAVVYGGIILVMFALAGQFIIYFFGISIEALEMAGGVILLLMAVEMIMEGNRPKTSGSEVTTDLDIGIVPFATPLLAGPGAISLVIILMKGPLIDKIFTFVSIGIIFLMVYIFFKEASIVSKFIGNKAMKAVSRIFGLLLAGFAIQYFIDAVTALFLVH” the entry was “failed”; with “MLIYEGHIDKLIRRGQEKGLDIFNLIRAAVINPVEHYGLNVGLLREGDPADFITVDDLKSFNVLSTFIDGECVYENGKVLFPMKLEHHHHHH”, “not failed”; with “MGKVTIIAGGIKTESRLNGLIQLAANQLANNGTEVKIIEVHKIQAEALVTADFTHPDIHLANSEIESSSGVIIATPIFKAAYSGVLKAYLDLLPLKALKGKVVLPLGLGGSNGHLLALQYALDPVLKELGAEIILKGQFTVDKQIERLGNGLYEIEITAKERLDSALNQFISLLNQNSVEVLEHHHHHH”, “not failed”.
For the sequence “MPGVTVKDIDQHAVTKAVAVFLKKTGKLKVPDQMDIVKTAKFKELAPYDPDWFYVRCASILRHLYHRSPAGVGSITKIYGGRKRNGVHPSHFCRAADGAARKALQALEHARLVEKHPDGGRKLSSIGQRDLDRIANQIVFKQRDAAKQTGPIVISK”, the protein production entry is “failed”.
Regarding “MSLYTILVVDDSPMIVDVFVTMLERGGYRPITAFSGEECLEALNATPPDLVLLDIMMEPMDGWETLERIKTDPATRDIPVLMLTAKPLTPEEANEYGSYIEDYILKPTTHHQLYEAIEHVLARRHSIAADEGHHHHHH”, the protein production entry is listed as “not failed”.
With “MSTTMKRQGCSSDSGDLRRQPSRLLKRPPALKIVPATPAANNWNTAIPLLSPLALSPESSPVDQPPVEKNQSTAVAVEKTPVFKKWQHPAAPFYYESSTFVPPFVPV” the entry was “failed”; with “MNQRIETITALLDEKKAFDITHIDLSKTPYLVEDVIIATTLANKHALSLLDALKNTLKPLGEVFYQIDESNEEWIILDLGDLMIHLFTEECRKKFDLEGFLNAYKRGLPYQNA”, “failed”.
Consider “SLSLIRKKGFYKQDVNKTAWELPKTYVSPTHVGSGAYGSVCSAIDKRSGEKVAIKKLSRPFQSEIFAKRAYRELLLLKHMQHENVIGLLDVFTPASSLRNFYDFYLVMPFMQTDLQKIMGLKFSEEKIQYLVYQMLKGLKYIHSAGVVHRDLKPGNLAVNEDCELKILDFGLARHADAEMTGYVVTRWYRAPEVILSWMHYNQTVDIWSVGCIMAEMLTGKTLFKGKDYLDQLTQILKVTGVPGTEFVQKLNDKAAKSYIQSLPQTPRKDFTQLFPRASPQAADLLEKMLELDVDKRLTAAQALTHPFFEPFRDPEEETEAQQPFDDSLEHEKLTVDEWKQHIYKEIVNFSPI”, for which the protein production result was “not failed”.
